Ends that are not written are not given here.
Experiments:
streptavidin (SA chip) = molecular target: T1, streptavidin (SA chip) (UniProt P22629 37-163, limits assumed); experiment: SPR, Biacore 3000, streptavidin-coated chip
T1 construct: Chip surface of the SPR experiments; also called SA chips; streptavidin-coated chip
Procedure: Surface Plasmon Resonance (SPR). SPR sensorgrams were recorded on a BiaCore 3000 instrument (Biacore Inc, Piscataway, N.J.), employing a high-capacity LMWH surface created on a commercially available streptavidin-coated chip via treatment with biotinylated LMWH.
In SPR experiments, the interaction of the peptides with a LMWH-modified SA chip surface was determined under conditions described in the experimental section.

[1] = molecular target: the molecule itself; experiment: circular dichroism, concentration dependence of MRE at 222 nm in PBS, fit for the Kd of the dimerization; isolated PF4ZIP, not conjugated to PEG
Procedure: Samples were equilibrated at the desired temperature for 30 minutes prior to data collection; equilibration was indicated by the absence of further changes in the CD signal at longer equilibration times. All CD spectra were taken in a 1 mm path length quartz cuvette, at wavelengths from 200 to 250 nm. Data points were recorded at every nanometer with a 4.0 s response time. The concentrations of peptide samples were determined via amino acid analysis for calculation of mean residue ellipticities.
The conformation of PF₄ZIP at various concentrations was also monitored via CD. […] The difference between the measured ellipticity and the ellipticity of the unfolded monomer is related to concentration and can be fit to determine the Kd of the dimerization, via standard fitting procedures well-described in the literature.

T1 sequence (P22629 37-163 limits assumed): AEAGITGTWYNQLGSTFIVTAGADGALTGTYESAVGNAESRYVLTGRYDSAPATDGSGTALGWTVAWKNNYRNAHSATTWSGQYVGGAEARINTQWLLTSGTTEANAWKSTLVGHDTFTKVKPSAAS

B1: PF4ZIP (peptide)
peptide: CGGRMKQLEDKVKKLLKKNYHLENEVARLKKLVG-NH2
modifications: also: coiled-coil dimer
notes: also called coiled-coil PF4ZIP
B1 was tested, and the binding result (streptavidin (SA chip)) was “no binding” and the Kd [1] was 3.48 µM.

— US20110033543A1 (UNIVERSITY OF DELAWARE, published 2011)
